{"source": "patent US20050268353A1", "key": {"[1]": {"target": "Midgut brush border membranes of Helicoverpa armigera larvae", "assay": "125I-labelled HaSV particles with midgut brush border membranes boiled before the incubation (control)"}, "[2]": {"target": "Midgut brush border membranes of Helicoverpa armigera larvae", "assay": "125I-labelled HaSV particles with midgut brush border membranes preincubated 1 h with unlabelled HaSV (self-competition)"}, "[3]": {"target": "Midgut brush border membranes of Helicoverpa armigera larvae", "assay": "125I-labelled HaSV particles (103,000 cpm) incubated 1 h with midgut brush border membranes, pelleted, washed three times, gamma counting"}}, "data": [{"substance": "Helicoverpa armigera stunt virus (HaSV) particles (from UniProt Q82462 1-647)", "values": [{"measurement": "cpm remaining with the membranes after washing", "setting": "[1]", "result": 1700, "unit": "cpm"}, {"measurement": "cpm remaining with the membranes after washing", "setting": "[2]", "result": 2100, "unit": "cpm"}, {"measurement": "cpm remaining with the membranes after washing", "setting": "[3]", "result": 8500, "unit": "cpm"}]}]}
